Blank lines part the entries; values can stand above or below the binder they belong to. Starred links: 1 amine or outer side, 2 acyl side, 3 side chain; linkers in the order of their positions; H or OH if unused. Non-standard residues stand in square brackets, D forms with d. No end group written: not given here. *: point of attachment. Trp(7-F) = N[C@@H](Cc1c[nH]c2c(F)cccc12)C(=O)O; Trp(7-Me) = Cc1cccc2c(C[C@H](N)C(=O)O)c[nH]c12; C20 diacid = O=C(O)CCCCCCCCCCCCCCCCCCC(=O)*; d(γGlu) = O=C(O)[C@@H](CCC(=O)[*:2])N[*:1]; C18 diacid = O=C(O)CCCCCCCCCCCCCCCCC(=O)*; γGlu = O=C(O)[C@H](CCC(=O)[*:2])N[*:1]; Palmitoyl = CCCCCCCCCCCCCCCC(=O)*; 3Pal = N[C@@H](Cc1cccnc1)C(=O)O; Nle = CCCC[C@H](N)C(=O)O; AEEA = NCCOCCOCC(=O)O; Aib = CC(C)(N)C(=O)O; βAla = NCCC(=O)O; Sar = CNCC(=O)O
Biological target: human GRP receptor (human, UniProt P30550 1-384)
Experiment: cell-based or functional assay

Chain of human GRP receptor (P30550 whole entry): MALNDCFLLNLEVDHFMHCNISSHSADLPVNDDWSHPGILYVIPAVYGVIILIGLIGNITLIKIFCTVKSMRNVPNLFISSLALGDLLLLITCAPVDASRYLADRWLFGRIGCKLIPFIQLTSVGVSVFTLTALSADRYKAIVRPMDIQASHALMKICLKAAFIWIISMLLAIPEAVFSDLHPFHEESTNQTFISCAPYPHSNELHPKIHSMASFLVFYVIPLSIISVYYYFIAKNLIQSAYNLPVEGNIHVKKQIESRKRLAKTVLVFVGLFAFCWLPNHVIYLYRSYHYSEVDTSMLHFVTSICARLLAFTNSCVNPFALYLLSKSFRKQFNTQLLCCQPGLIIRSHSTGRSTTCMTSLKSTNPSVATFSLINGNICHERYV

B4: Peptide 137 (peptide)
peptide: {C18 diacid}-[γGlu][AEEA][AEEA][AEEA][AEEA]GRH[Trp(7-F)]AV[dA]HL[Nle][Sar]-NH2
SMILES: CCCC[C@H](NC(=O)[C@H](CC(C)C)NC(=O)[C@H](Cc1c[nH]cn1)NC(=O)[C@@H](C)NC(=O)[C@@H](NC(=O)[C@H](C)NC(=O)[C@H](Cc1c[nH]c2c(F)cccc12)NC(=O)[C@H](Cc1c[nH]cn1)NC(=O)[C@H](CCCNC(=N)N)NC(=O)CNC(=O)COCCOCCNC(=O)COCCOCCNC(=O)COCCOCCNC(=O)COCCOCCNC(=O)CC[C@H](NC(=O)CCCCCCCCCCCCCCCCC(=O)O)C(=O)O)C(C)C)C(=O)N(C)CC(N)=O
- hIP1 GRPR EC50: 488 nM

B5: Peptide 147 (peptide)
peptide: {C18 diacid}-[γGlu][AEEA][AEEA]GQHWAV[dA]HL[Nle]-NH2
SMILES: CCCC[C@H](NC(=O)[C@H](CC(C)C)NC(=O)[C@H](Cc1c[nH]cn1)NC(=O)[C@@H](C)NC(=O)[C@@H](NC(=O)[C@H](C)NC(=O)[C@H](Cc1c[nH]c2ccccc12)NC(=O)[C@H](Cc1c[nH]cn1)NC(=O)[C@H](CCC(N)=O)NC(=O)CNC(=O)COCCOCCNC(=O)COCCOCCNC(=O)CC[C@H](NC(=O)CCCCCCCCCCCCCCCCC(=O)O)C(=O)O)C(C)C)C(N)=O
- hIP1 GRPR EC50: 5.72 nM

B7: Peptide 149 (peptide)
peptide: {C20 diacid}-[γGlu][AEEA][AEEA]GNHWAV[dA]HL[Nle]-NH2
SMILES: CCCC[C@H](NC(=O)[C@H](CC(C)C)NC(=O)[C@H](Cc1c[nH]cn1)NC(=O)[C@@H](C)NC(=O)[C@@H](NC(=O)[C@H](C)NC(=O)[C@H](Cc1c[nH]c2ccccc12)NC(=O)[C@H](Cc1c[nH]cn1)NC(=O)[C@H](CC(N)=O)NC(=O)CNC(=O)COCCOCCNC(=O)COCCOCCNC(=O)CC[C@H](NC(=O)CCCCCCCCCCCCCCCCCCC(=O)O)C(=O)O)C(C)C)C(N)=O
- hIP1 GRPR EC50: 1.89 nM

B8: Peptide 134 (peptide)
peptide: {C18 diacid}-[γGlu][AEEA][AEEA]GNH[Trp(7-Me)]AV[dA]HL[Nle]R-NH2
SMILES: CCCC[C@H](NC(=O)[C@H](CC(C)C)NC(=O)[C@H](Cc1c[nH]cn1)NC(=O)[C@@H](C)NC(=O)[C@@H](NC(=O)[C@H](C)NC(=O)[C@H](Cc1c[nH]c2c(C)cccc12)NC(=O)[C@H](Cc1c[nH]cn1)NC(=O)[C@H](CC(N)=O)NC(=O)CNC(=O)COCCOCCNC(=O)COCCOCCNC(=O)CC[C@H](NC(=O)CCCCCCCCCCCCCCCCC(=O)O)C(=O)O)C(C)C)C(=O)N[C@@H](CCCNC(=N)N)C(N)=O
- hIP1 GRPR EC50: > 10000 nM

B9: Peptide 148 (peptide)
peptide: {C20 diacid}-[γGlu][AEEA][AEEA]GNHWAV[dA]HL[Nle]
- hIP1 GRPR EC50: 126 nM

B10: Peptide 139 (peptide)
peptide: {C18 diacid}-[γGlu][AEEA][AEEA]GDHW[dA]V[dA]HL[Nle]-NH2
SMILES: CCCC[C@H](NC(=O)[C@H](CC(C)C)NC(=O)[C@H](Cc1c[nH]cn1)NC(=O)[C@@H](C)NC(=O)[C@@H](NC(=O)[C@@H](C)NC(=O)[C@H](Cc1c[nH]c2ccccc12)NC(=O)[C@H](Cc1c[nH]cn1)NC(=O)[C@H](CC(=O)O)NC(=O)CNC(=O)COCCOCCNC(=O)COCCOCCNC(=O)CC[C@H](NC(=O)CCCCCCCCCCCCCCCCC(=O)O)C(=O)O)C(C)C)C(N)=O
- hIP1 GRPR EC50: > 10000 nM

B11: Peptide 11 (peptide)
peptide: Palmitoyl-[d(γGlu)][AEEA][AEEA]GNHW[Aib]V[dA]HL[Nle]-NH2
SMILES: CCCCCCCCCCCCCCCC(=O)N[C@H](CCC(=O)NCCOCCOCC(=O)NCCOCCOCC(=O)NCC(=O)N[C@@H](CC(N)=O)C(=O)N[C@@H](Cc1c[nH]cn1)C(=O)N[C@@H](Cc1c[nH]c2ccccc12)C(=O)NC(C)(C)C(=O)N[C@H](C(=O)N[C@H](C)C(=O)N[C@@H](Cc1c[nH]cn1)C(=O)N[C@@H](CC(C)C)C(=O)N[C@@H](CCCC)C(N)=O)C(C)C)C(=O)O
- hIP1 GRPR EC50: 3.2 nM

B12: Peptide 146 (peptide)
peptide: {C18 diacid}-[γGlu][AEEA][AEEA]GNHWAV[dA]HL[Nle]
- hIP1 GRPR EC50: 279 nM

B13: Peptide 144 (peptide)
peptide: {C18 diacid}-[γGlu][AEEA][AEEA]FN[3Pal]WAV[βAla]HL[Nle]-NH2
SMILES: CCCC[C@H](NC(=O)[C@H](CC(C)C)NC(=O)[C@H](Cc1c[nH]cn1)NC(=O)CCNC(=O)[C@@H](NC(=O)[C@H](C)NC(=O)[C@H](Cc1c[nH]c2ccccc12)NC(=O)[C@H](Cc1cccnc1)NC(=O)[C@H](CC(N)=O)NC(=O)[C@H](Cc1ccccc1)NC(=O)COCCOCCNC(=O)COCCOCCNC(=O)CC[C@H](NC(=O)CCCCCCCCCCCCCCCCC(=O)O)C(=O)O)C(C)C)C(N)=O
- hIP1 GRPR EC50: 5.99 nM

B16: Peptide 143 (peptide)
peptide: {C18 diacid}-[γGlu][AEEA][AEEA][dF]NHWAV[dA]HL[Nle]-NH2
SMILES: CCCC[C@H](NC(=O)[C@H](CC(C)C)NC(=O)[C@H](Cc1c[nH]cn1)NC(=O)[C@@H](C)NC(=O)[C@@H](NC(=O)[C@H](C)NC(=O)[C@H](Cc1c[nH]c2ccccc12)NC(=O)[C@H](Cc1c[nH]cn1)NC(=O)[C@H](CC(N)=O)NC(=O)[C@@H](Cc1ccccc1)NC(=O)COCCOCCNC(=O)COCCOCCNC(=O)CC[C@H](NC(=O)CCCCCCCCCCCCCCCCC(=O)O)C(=O)O)C(C)C)C(N)=O
- hIP1 GRPR EC50: 10.7 nM

B17: Peptide 142 (peptide)
peptide: {C18 diacid}-[γGlu][AEEA][AEEA]GNHWAV[βAla]HL[Nle]-NH2
SMILES: CCCC[C@H](NC(=O)[C@H](CC(C)C)NC(=O)[C@H](Cc1c[nH]cn1)NC(=O)CCNC(=O)[C@@H](NC(=O)[C@H](C)NC(=O)[C@H](Cc1c[nH]c2ccccc12)NC(=O)[C@H](Cc1c[nH]cn1)NC(=O)[C@H](CC(N)=O)NC(=O)CNC(=O)COCCOCCNC(=O)COCCOCCNC(=O)CC[C@H](NC(=O)CCCCCCCCCCCCCCCCC(=O)O)C(=O)O)C(C)C)C(N)=O
- hIP1 GRPR EC50: 3.55 nM

The next lines start with the values.

- hIP1 GRPR EC50: 5.2 nM
B1: Peptide 145 (peptide)
peptide: {C18 diacid}-[γGlu][AEEA][AEEA]RNHWAV[dA]HL[Nle]-NH2
SMILES: CCCC[C@H](NC(=O)[C@H](CC(C)C)NC(=O)[C@H](Cc1c[nH]cn1)NC(=O)[C@@H](C)NC(=O)[C@@H](NC(=O)[C@H](C)NC(=O)[C@H](Cc1c[nH]c2ccccc12)NC(=O)[C@H](Cc1c[nH]cn1)NC(=O)[C@H](CC(N)=O)NC(=O)[C@H](CCCNC(=N)N)NC(=O)COCCOCCNC(=O)COCCOCCNC(=O)CC[C@H](NC(=O)CCCCCCCCCCCCCCCCC(=O)O)C(=O)O)C(C)C)C(N)=O

- hIP1 GRPR EC50: 4.09 nM
B2: Peptide 150 (peptide)
peptide: {C20 diacid}-[γGlu][AEEA][AEEA]GRHWAV[dA]HL[Nle]-NH2
SMILES: CCCC[C@H](NC(=O)[C@H](CC(C)C)NC(=O)[C@H](Cc1c[nH]cn1)NC(=O)[C@@H](C)NC(=O)[C@@H](NC(=O)[C@H](C)NC(=O)[C@H](Cc1c[nH]c2ccccc12)NC(=O)[C@H](Cc1c[nH]cn1)NC(=O)[C@H](CCCNC(=N)N)NC(=O)CNC(=O)COCCOCCNC(=O)COCCOCCNC(=O)CC[C@H](NC(=O)CCCCCCCCCCCCCCCCCCC(=O)O)C(=O)O)C(C)C)C(N)=O

- hIP1 GRPR EC50: 7.72 nM
B3: Peptide 141 (peptide)
peptide: {C18 diacid}-[γGlu][AEEA][AEEA]RRHWAV[dA]HL[Nle]-NH2
SMILES: CCCC[C@H](NC(=O)[C@H](CC(C)C)NC(=O)[C@H](Cc1c[nH]cn1)NC(=O)[C@@H](C)NC(=O)[C@@H](NC(=O)[C@H](C)NC(=O)[C@H](Cc1c[nH]c2ccccc12)NC(=O)[C@H](Cc1c[nH]cn1)NC(=O)[C@H](CCCNC(=N)N)NC(=O)[C@H](CCCNC(=N)N)NC(=O)COCCOCCNC(=O)COCCOCCNC(=O)CC[C@H](NC(=O)CCCCCCCCCCCCCCCCC(=O)O)C(=O)O)C(C)C)C(N)=O

- hIP1 GRPR EC50: 81.8 nM
B6: Peptide 138 (peptide)
peptide: {C20 diacid}-[γGlu][AEEA][AEEA]GNH[Trp(7-F)]AV[dA]HL[Nle][Sar]-NH2
SMILES: CCCC[C@H](NC(=O)[C@H](CC(C)C)NC(=O)[C@H](Cc1c[nH]cn1)NC(=O)[C@@H](C)NC(=O)[C@@H](NC(=O)[C@H](C)NC(=O)[C@H](Cc1c[nH]c2c(F)cccc12)NC(=O)[C@H](Cc1c[nH]cn1)NC(=O)[C@H](CC(N)=O)NC(=O)CNC(=O)COCCOCCNC(=O)COCCOCCNC(=O)CC[C@H](NC(=O)CCCCCCCCCCCCCCCCCCC(=O)O)C(=O)O)C(C)C)C(=O)N(C)CC(N)=O

- hIP1 GRPR EC50: 4.8 nM
B14: Peptide 140 (peptide)
peptide: {C18 diacid}-[γGlu][AEEA][AEEA]FNHWAV[βAla]HL[Nle]-NH2
SMILES: CCCC[C@H](NC(=O)[C@H](CC(C)C)NC(=O)[C@H](Cc1c[nH]cn1)NC(=O)CCNC(=O)[C@@H](NC(=O)[C@H](C)NC(=O)[C@H](Cc1c[nH]c2ccccc12)NC(=O)[C@H](Cc1c[nH]cn1)NC(=O)[C@H](CC(N)=O)NC(=O)[C@H](Cc1ccccc1)NC(=O)COCCOCCNC(=O)COCCOCCNC(=O)CC[C@H](NC(=O)CCCCCCCCCCCCCCCCC(=O)O)C(=O)O)C(C)C)C(N)=O

- hIP1 GRPR EC50: 40.5 nM
B15: Peptide 136 (peptide)
peptide: {C18 diacid}-[γGlu][AEEA][AEEA][AEEA][AEEA]GAH[Trp(7-F)]AV[dA]HL[Nle]-NH2
SMILES: CCCC[C@H](NC(=O)[C@H](CC(C)C)NC(=O)[C@H](Cc1c[nH]cn1)NC(=O)[C@@H](C)NC(=O)[C@@H](NC(=O)[C@H](C)NC(=O)[C@H](Cc1c[nH]c2c(F)cccc12)NC(=O)[C@H](Cc1c[nH]cn1)NC(=O)[C@H](C)NC(=O)CNC(=O)COCCOCCNC(=O)COCCOCCNC(=O)COCCOCCNC(=O)COCCOCCNC(=O)CC[C@H](NC(=O)CCCCCCCCCCCCCCCCC(=O)O)C(=O)O)C(C)C)C(N)=O

— US20260176319A1 (KALLYOPE, published 2026)
